The target in the assay is T1, recombinant soluble PSMA (rsPSMA) (human, UniProt Q04609 44-750).
T1 construct: Oligomeric state not specified for the assay; also called secreted rsPSMA; PSMAECTO
Kind of assay: Biacore SPR, mAb captured by anti-human IgG, rsPSMA in flow. As for the experimental part: It is ideal for screening crude supernatants.
The entire sensor chip surface was conditioned with five injections of conditioning solution (1 M NaCl, 50 mM NaOH) and equilibrated with PBS buffer containing 0.005% polysorbate 20. Two to three thousand resonance units (RU) of biotinylated anti-human IgG antibody (Sigma) were immobilized onto the SA chip followed by an injection of regeneration buffer (glycine-HCl, pH 2.2). […] For each antibody at one concentration, the chip was regenerated and equilibrated.
In general terms: Surface plasmon resonance follows binding to a sensor surface in real time, without labels.

Here are results for one molecule from patent publication US20110165081A1 (published 2011).

In general, Kd refers to a measure of binding affinity in units of concentration.

T1 sequence (Q04609 44-750): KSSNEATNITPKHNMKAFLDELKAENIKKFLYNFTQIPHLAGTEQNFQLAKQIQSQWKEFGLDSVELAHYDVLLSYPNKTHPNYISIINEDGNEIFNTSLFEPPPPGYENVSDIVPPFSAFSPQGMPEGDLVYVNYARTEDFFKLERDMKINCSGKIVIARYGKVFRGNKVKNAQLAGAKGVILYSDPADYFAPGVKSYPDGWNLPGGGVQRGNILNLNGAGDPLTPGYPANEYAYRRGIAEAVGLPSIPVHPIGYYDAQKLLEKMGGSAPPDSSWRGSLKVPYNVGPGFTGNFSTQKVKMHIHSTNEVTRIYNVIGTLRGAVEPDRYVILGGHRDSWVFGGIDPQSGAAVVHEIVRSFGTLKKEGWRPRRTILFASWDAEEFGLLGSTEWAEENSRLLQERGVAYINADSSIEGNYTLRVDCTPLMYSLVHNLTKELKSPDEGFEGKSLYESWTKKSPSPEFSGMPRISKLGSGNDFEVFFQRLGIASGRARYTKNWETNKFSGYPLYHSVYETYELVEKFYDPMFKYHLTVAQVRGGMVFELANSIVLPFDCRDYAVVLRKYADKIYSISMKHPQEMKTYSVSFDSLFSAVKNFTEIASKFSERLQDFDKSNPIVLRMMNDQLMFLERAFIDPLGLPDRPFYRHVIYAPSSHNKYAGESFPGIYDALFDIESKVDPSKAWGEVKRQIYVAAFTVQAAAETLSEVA

B1: PSMA 10.3 (antibody, V domains shown)
VH: QEQLVESGGGVVQPGRSLRLSCAASGFTFSTYGMHWVRQAPGKGLEWVAVTWHDGSNKYYADSVKGRFTISRDNSKNTLYLQMNSLRAEDTAVYYCARGGVGATYYYYYGMDVWGQGTTVTVSS
VL: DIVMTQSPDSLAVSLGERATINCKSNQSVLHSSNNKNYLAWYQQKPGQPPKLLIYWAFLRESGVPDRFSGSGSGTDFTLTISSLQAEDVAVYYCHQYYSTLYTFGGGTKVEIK
For B1, the dissociation constant (Kd) worked out at 0.193 nM.
